# Measured values taken from patent US20070009442A1, “Macrocyclic metal complexes and their use for the production of conjugates with biomolecules” (priority 2001, published 2007).
# Tests used:
# [1] = Relaxivity of the conjugates in plasma; type: physicochemical; settings: +37° C., 20 MHz, relaxivity per mol of gadolinium calculated from the measured values
# Experimental: (§1) As comparison substances, Gd-DTPA (1) with the formula: [drawing 16] and Gd-GlyMeDOTA (2) with the formula: [drawing 17] which were reacted in each case with bovine serum albumin (BSA), were used.
# (§2) The measurements were made in each case in aqueous solution and in plasma at +37° C. and a frequency of 20 MHz. The results are summarized in Table 2 below, whereby the indicated relaxivities per mol of gadolinium were calculated from the measured values: […]
# [2] = Relaxivity of the conjugates in aqueous solution; type: physicochemical; settings: +37° C., 20 MHz, relaxivity per mol of gadolinium calculated from the measured values
# Experimental: as §1, §2
substance,measurement,setting,value
Gd-GlyMeDOTA [Vergleichssubstanz 2],R1 (Plasma),[1],20.8 L/mmol/s
same,R1 (H2O),[2],18.3 L/mmol/s
